The text below walks through data of article PMC6004577 (Molecular Biology of the Cell, 2018).

The data set “AUC” concerns the molecule itself. In words: AUC.
The data set “SEC” deals with the molecule itself. Description: SEC. On the technique in general: SEC sorts molecules by how far they enter the pores of the column.

B1: α-mDelNT, N-terminal half of mouse α-Delphilin (aa 1-558) (domain or fragment, UniProt Q0QWG9-2 1-558, looked up)
chain: MSCLGIFIPKKHRARFDEVVSQGLLGKLCRARRAQGAQRLRRSRSEERPERLLVSTRASAAPRRPDEPPPRKATSLLGGRTGPGGPRRTVRVYKGNKSFGFTLRGHGPVWIESVLPGSPAENASLKSGDRILFLNGLDMRNCSHDKVVSMLQGSGAMPTLVVEEGPVPFASDSDSLDSPTRASALTSLQWVADILPSSIRVQGRTFSQQLDHLLTPPERYGVCRALERFFQHRNIDTLIVDVYPVLDTPAKQVLWQFLYQLLTYEEQELCQEKIACFLGYTAMTEPESSLDLEPESTPEPTPEPQPRSSLRASSMCRRSLRSQGLETSLSCGPGDCPEMPLPLIPGERQAGDGTSLPETPNPKMMSAVYAELESRLNSSFKGKIGTMSKSRASPPVPSLVGTSGPRTLSGVSWPSDRLLPSPCYDPLCSGGLASPSSSESHPYASLDSSRAPSPQPGLGSIHADSPPSPDPIRPPSRRKLFAFSRPVRSRDTDRFLDALSEQLGPRLSIVDDFLTPENDYEEMSFHDDQGSFVTNERSSASECVSSSEEGSSLTYSSI
Take B1: the results for the “stoichiometry N” value in the data set “AUC” and in “SEC” were 6 and 7 ± 1 subunits, respectively.

One may read the stoichiometry N as a count of units in the complex or per binding partner.
